Biological target: AvrPtoB BAK1-interacting domain, 250-359 (UniProt Q8RSY1)
Assay: gel filtration co-migration, Coomassie SDS-PAGE
Conditions: reference: wild-type BAK1-KD

| Substance | binding against the reference (sites T450) | binding against the reference (sites T449) |
| --- | --- | --- |
| BAK1 kinase domain, 250-591 (from UniProt Q94F62) BAK1-KD T450A | lost | – |
| BAK1 kinase domain, 250-591 (from UniProt Q94F62) BAK1-KD T449A | – | lost |

Reference: paper PMC3876282
